T1: human FAPα (Fibroblast activation protein alpha), cell surface expressed (human, UniProt Q12884 1-760)
T1 construct: Endogenous on human lung fibroblasts and CAFs
T1 sequence: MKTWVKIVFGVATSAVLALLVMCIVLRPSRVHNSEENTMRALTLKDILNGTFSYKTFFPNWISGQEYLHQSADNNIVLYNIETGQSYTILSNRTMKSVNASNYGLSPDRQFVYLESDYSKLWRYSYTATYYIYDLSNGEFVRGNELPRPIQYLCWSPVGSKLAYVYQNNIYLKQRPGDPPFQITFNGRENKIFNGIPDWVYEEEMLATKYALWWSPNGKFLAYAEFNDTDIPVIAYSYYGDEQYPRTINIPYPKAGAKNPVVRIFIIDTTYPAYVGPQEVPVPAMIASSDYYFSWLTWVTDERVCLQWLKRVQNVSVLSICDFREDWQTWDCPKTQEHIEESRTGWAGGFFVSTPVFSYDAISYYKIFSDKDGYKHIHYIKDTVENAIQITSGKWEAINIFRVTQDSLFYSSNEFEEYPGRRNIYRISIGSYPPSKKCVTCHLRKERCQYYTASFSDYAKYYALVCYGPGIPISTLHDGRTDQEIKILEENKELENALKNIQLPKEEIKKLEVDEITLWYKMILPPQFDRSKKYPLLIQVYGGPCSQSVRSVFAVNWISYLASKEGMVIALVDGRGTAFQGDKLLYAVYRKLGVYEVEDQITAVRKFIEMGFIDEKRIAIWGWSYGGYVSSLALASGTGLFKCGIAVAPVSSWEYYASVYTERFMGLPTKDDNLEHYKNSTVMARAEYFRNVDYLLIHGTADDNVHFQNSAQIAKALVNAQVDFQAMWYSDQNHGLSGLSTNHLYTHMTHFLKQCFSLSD

T2: human DR4 (Death Receptor 4), cell surface expressed on human tumor cell lines (human, UniProt O00220 24-468)
T2 construct: also called TNFRSF10A; TRAIL-R1
T2 sequence: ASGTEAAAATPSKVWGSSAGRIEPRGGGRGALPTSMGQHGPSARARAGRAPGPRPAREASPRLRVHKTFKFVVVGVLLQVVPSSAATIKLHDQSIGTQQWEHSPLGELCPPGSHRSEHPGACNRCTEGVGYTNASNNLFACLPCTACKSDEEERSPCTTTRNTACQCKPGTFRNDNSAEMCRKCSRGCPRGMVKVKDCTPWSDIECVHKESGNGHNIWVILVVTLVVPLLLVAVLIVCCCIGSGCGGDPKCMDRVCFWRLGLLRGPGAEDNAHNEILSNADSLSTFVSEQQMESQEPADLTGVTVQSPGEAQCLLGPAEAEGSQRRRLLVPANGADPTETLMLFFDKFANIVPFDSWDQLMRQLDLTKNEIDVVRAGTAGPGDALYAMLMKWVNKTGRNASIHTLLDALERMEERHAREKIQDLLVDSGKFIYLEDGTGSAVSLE


Columns and labels:
[1] = molecular target: T1, human FAPα (Fibroblast activation …); test: flow cytometry, Expi293F cells expressing human FAPα, average ± SEM
Procedure: Binding of BisG1-FAPα-FERL/DR4-FERR, BisG1-FAPα-FEAL/b12-FEAR and IgG1-FAPα-FERL to FAPα of species commonly used for nonclinical toxicology studies was assessed by flow cytometry using Expi293F cells transiently expressing FAPα from different animal species. IgG1-b12 was included as negative control.
Expi293F cells expressing recombinant FAPα from various species (human, cynomolgus monkey, dog, pig, rat or mouse) were seeded (20,000 cells/well) in 96-Well round bottom plates (Greiner Bio-one, Cat #650101). Antibody dilutions were prepared using FACS buffer, consisting of PBS (Capricorn Scientific, Cat #PBS-10XA, diluted to 1×PBS in distilled water)+1% BSA (Roche, Cat #10735086001)+0.02% Sodium Azide (Bio-World, Cat #41920044-3). Plates were centrifuged, supernatant was removed, and cells were resuspended in 100 μL of antibody dilutions (concentration range 30-0.00017 μg/mL with three-fold serial dilutions using FACS buffer) of BisG1-FAPα-FERL/DR4-FERR, BisG1-FAPα-FEAL/b12-FEAR, IgG1-FAPα-FERL and IgG1-b12 and incubated for 30 min at 4° C. […] After 30 min incubation at 4° C., cells were washed with FACS buffer and resuspended in FACS buffer supplemented with TO-PRO-3 Iodide viability marker (Invitrogen, Cat #T3605, diluted 1:4,000). Antibody binding to viable cells (gMFI of PE on TO-PRO-3 negative cells) was analyzed by flow cytometry on a FACS Celesta and FACS_Diva software (first two experiments) or iQue® 3 and FlowJo software (last experiment). gMFI was determined and visualized using GraphPad Prism. Binding curves were analyzed using nonlinear regression analysis. The concentration (pg/mL) at which 50% of the maximal effect was observed (EC₅₀) was derived from the fitted curves.

[2] = molecular target: T2, human DR4 (Death Receptor 4), cell …; test: flow cytometry, DLD-1 cells, average ± SEM
[3] = molecular target: T2, human DR4 (Death Receptor 4), cell …; test: flow cytometry, MDA-MB-231 cells, N = 1
[4] = molecular target: T2, human DR4 (Death Receptor 4), cell …; test: flow cytometry, DLD-1 cells, n = 1

Binder	EC50 [1] [µg/mL]	EC50 [2] [µg/mL]	EC50 [3] [µg/mL]	Max MFI (at 90 µg/mL) [3] [MFI]	EC50 [4] [µg/mL]
BisG1-FAPα-FEAL/b12-FEAR (bispecific antibody, human IgG1, kappa, Fab-arm exchange of IgG1-FAPα-FEAL and IgG1-b12-FEAR) heavy 1: EVQLLESGGGLVQPGGSPRLSCEASGFTFSSYALSWVRQAPGKGLEWVSAISGSGGGRYYADSVKGRFTISRDNSKNTLFLQMNSLRAEDTAVYYCAKEGYSSSGTYWDHWGQGTLVTVSSASTKGPSVFPLAPSSKSTSGGTAALGCLVKDYFPEPVTVSWNSGALTSGVHTFPAVLQSSGLYSLSSVVTVPSSSLGTQTYICNVNHKPSNTKVDKRVEPKSCDKTHTCPPCPAPEFEGGPSVFLFPPKPKDTLMISRTPEVTCVVVAVSHEDPEVKFNWYVDGVEVHNAKTKPREEQYNSTYRVVSVLTVLHQDWLNGKEYKCKVSNKALPAPIEKTISKAKGQPREPQVYTLPPSREEMTKNQVSLTCLVKGFYPSDIAVEWESNGQPENNYKTTPPVLDSDGSFLLYSKLTVDKSRWQQGNVFSCSVMHEALHNHYTQKSLSLSPG light 1: AIQMTQSPSSVSASVGDRVTITCRASQGVSSWLAWYQQKPGRAPKLLIYVASTLQSGVPSRFSGSGSGTDFTLTINSLQPEDFATYYCQQANSFPPTFGQGTRLEMKRTVAAPSVFIFPPSDEQLKSGTASVVCLLNNFYPREAKVQWKVDNALQSGNSQESVTEQDSKDSTYSLSSTLTLSKADYEKHKVYACEVTHQGLSSPVTKSFNRGEC heavy 2: QVQLVQSGAEVKKPGASVKVSCQASGYRFSNFVIHWVRQAPGQRFEWMGWINPYNGNKEFSAKFQDRVTFTADTSANTAYMELRSLRSADTAVYYCARVGPYSWDDSPQDNYYMDVWGKGTTVIVSSASTKGPSVFPLAPSSKSTSGGTAALGCLVKDYFPEPVTVSWNSGALTSGVHTFPAVLQSSGLYSLSSVVTVPSSSLGTQTYICNVNHKPSNTKVDKRVEPKSCDKTHTCPPCPAPEFEGGPSVFLFPPKPKDTLMISRTPEVTCVVVAVSHEDPEVKFNWYVDGVEVHNAKTKPREEQYNSTYRVVSVLTVLHQDWLNGKEYKCKVSNKALPAPIEKTISKAKGQPREPQVYTLPPSREEMTKNQVSLTCLVKGFYPSDIAVEWESNGQPENNYKTTPPVLDSDGSFFLYSRLTVDKSRWQQGNVFSCSVMHEALHNHYTQKSLSLSPG light 2: EIVLTQSPGTLSLSPGERATFSCRSSHSIRSRRVAWYQHKPGQAPRLVIHGVSNRASGISDRFSGSGSGTDFTLTITRVEPEDFALYYCQVYGASSYTFGQGTKLERKRTVAAPSVFIFPPSDEQLKSGTASVVCLLNNFYPREAKVQWKVDNALQSGNSQESVTEQDSKDSTYSLSSTLTLSKADYEKHKVYACEVTHQGLSSPVTKSFNRGEC	0.3				
BisG1-b12-FERL/DR4-FERR (bispecific antibody, human IgG1, kappa, lambda, Fab-arm exchange of IgG1-b12-FERL and IgG1-DR4-FERR; also called bsIgG1-ctrl-FERLxDR4-FERR) heavy 1: QVQLVQSGAEVKKPGASVKVSCQASGYRFSNFVIHWVRQAPGQRFEWMGWINPYNGNKEFSAKFQDRVTFTADTSANTAYMELRSLRSADTAVYYCARVGPYSWDDSPQDNYYMDVWGKGTTVIVSSASTKGPSVFPLAPSSKSTSGGTAALGCLVKDYFPEPVTVSWNSGALTSGVHTFPAVLQSSGLYSLSSVVTVPSSSLGTQTYICNVNHKPSNTKVDKRVEPKSCDKTHTCPPCPAPEFERGPSVFLFPPKPKDTLMISRTPEVTCVVVDVSHEDPEVKFNWYVDGVEVHNAKTKPREEQYNSTYRVVSVLTVLHQDWLNGKEYKCKVSNKALPAPIEKTISKAKGQPREPQVYTLPPSREEMTKNQVSLTCLVKGFYPSDIAVEWESNGQPENNYKTTPPVLDSDGSFLLYSKLTVDKSRWQQGNVFSCSVMHEALHNHYTQKSLSLSPG light 1: EIVLTQSPGTLSLSPGERATFSCRSSHSIRSRRVAWYQHKPGQAPRLVIHGVSNRASGISDRFSGSGSGTDFTLTITRVEPEDFALYYCQVYGASSYTFGQGTKLERKRTVAAPSVFIFPPSDEQLKSGTASVVCLLNNFYPREAKVQWKVDNALQSGNSQESVTEQDSKDSTYSLSSTLTLSKADYEKHKVYACEVTHQGLSSPVTKSFNRGEC heavy 2: QVQLQESGPGLVKPSGTLSLTCAVSGGSISSYSWWSWIRQPPGKGLEWIGELYHSGSTNYNPSLKSRVTISVDKSKNQFSLKLRSVTAADTAVYYCVRGVATIDYWGQGTLVTVSSASTKGPSVFPLAPSSKSTSGGTAALGCLVKDYFPEPVTVSWNSGALTSGVHTFPAVLQSSGLYSLSSVVTVPSSSLGTQTYICNVNHKPSNTKVDKRVEPKSCDKTHTCPPCPAPEFERGPSVFLFPPKPKDTLMISRTPEVTCVVVDVSHEDPEVKFNWYVDGVEVHNAKTKPREEQYNSTYRVVSVLTVLHQDWLNGKEYKCKVSNKALPAPIEKTISKAKGQPREPQVYTLPPSREEMTKNQVSLTCLVKGFYPSDIAVEWESNGQPENNYKTTPPVLDSDGSFFLYSRLTVDKSRWQQGNVFSCSVMHEALHNHYTQKSLSLSPG light 2: QSALTQPPSASGSPGQSVTISCTGTSSDVGGYNFVSWYQQDPGKAPKLLIYEVTKRPSGVPDRFSGSKSGNTASLTVSGLQAEDEADYYCSSYAGSNNVMFGGGTKLTVLGQPKAAPSVTLFPPSSEELQANKATLVCLISDFYPGAVTVAWKADSSPVKAGVETTTPSKQSNNKYAASSYLSLTPEQWKSHRSYSCQVTHEGSTVEKTVAPTECS		0.72	0.39	7840	0.85
IgG1-FAPα-FERL (antibody, Bivalent monoclonal IgG1 kappa) heavy: EVQLLESGGGLVQPGGSPRLSCEASGFTFSSYALSWVRQAPGKGLEWVSAISGSGGGRYYADSVKGRFTISRDNSKNTLFLQMNSLRAEDTAVYYCAKEGYSSSGTYWDHWGQGTLVTVSSASTKGPSVFPLAPSSKSTSGGTAALGCLVKDYFPEPVTVSWNSGALTSGVHTFPAVLQSSGLYSLSSVVTVPSSSLGTQTYICNVNHKPSNTKVDKRVEPKSCDKTHTCPPCPAPEFERGPSVFLFPPKPKDTLMISRTPEVTCVVVDVSHEDPEVKFNWYVDGVEVHNAKTKPREEQYNSTYRVVSVLTVLHQDWLNGKEYKCKVSNKALPAPIEKTISKAKGQPREPQVYTLPPSREEMTKNQVSLTCLVKGFYPSDIAVEWESNGQPENNYKTTPPVLDSDGSFLLYSKLTVDKSRWQQGNVFSCSVMHEALHNHYTQKSLSLSPG light: AIQMTQSPSSVSASVGDRVTITCRASQGVSSWLAWYQQKPGRAPKLLIYVASTLQSGVPSRFSGSGSGTDFTLTINSLQPEDFATYYCQQANSFPPTFGQGTRLEMKRTVAAPSVFIFPPSDEQLKSGTASVVCLLNNFYPREAKVQWKVDNALQSGNSQESVTEQDSKDSTYSLSSTLTLSKADYEKHKVYACEVTHQGLSSPVTKSFNRGEC	0.18				
IgG1-DR4-FERR (antibody, V domains shown, Bivalent monoclonal IgG1 lambda) VH: QVQLQESGPGLVKPSGTLSLTCAVSGGSISSYSWWSWIRQPPGKGLEWIGELYHSGSTNYNPSLKSRVTISVDKSKNQFSLKLRSVTAADTAVYYCVRGVATIDYWGQGTLVTVSS VL: QSALTQPPSASGSPGQSVTISCTGTSSDVGGYNFVSWYQQDPGKAPKLLIYEVTKRPSGVPDRFSGSKSGNTASLTVSGLQAEDEADYYCSSYAGSNNVMFGGGTKLTVLG		0.26	0.24		0.33

Source: patent publication US20250002610A1 (Genmab, published 2025)
